Experimental data reported in patent US20040018516A1.

What was measured:
[1] = biological target: Factor VIIa/Tissue Factor (lipidated) complex (UniProt P08709); assay: cell-based or functional assay
Factor Xa = Factor Xa (UniProt P00742); assay: cell-based or functional assay
[2] = biological target: Ixolaris (recombinant, mature protein of 140 amino acids)

Chain of UniProt P08709 (P08709 61-466 limits assumed, chain 1 of 2): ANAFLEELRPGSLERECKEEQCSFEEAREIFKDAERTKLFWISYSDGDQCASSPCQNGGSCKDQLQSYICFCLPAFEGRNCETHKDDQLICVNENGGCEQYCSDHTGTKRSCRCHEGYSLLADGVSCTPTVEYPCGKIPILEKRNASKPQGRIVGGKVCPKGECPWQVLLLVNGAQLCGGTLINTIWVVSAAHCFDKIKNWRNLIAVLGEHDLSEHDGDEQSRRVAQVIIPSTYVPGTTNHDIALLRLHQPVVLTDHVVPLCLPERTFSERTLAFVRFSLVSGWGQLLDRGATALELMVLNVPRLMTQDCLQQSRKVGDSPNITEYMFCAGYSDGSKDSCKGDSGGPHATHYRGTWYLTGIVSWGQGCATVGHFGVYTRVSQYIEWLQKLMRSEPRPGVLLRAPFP
Chain of UniProt P08709 (P13726 33-295 limits assumed, chain 2 of 2, further chain): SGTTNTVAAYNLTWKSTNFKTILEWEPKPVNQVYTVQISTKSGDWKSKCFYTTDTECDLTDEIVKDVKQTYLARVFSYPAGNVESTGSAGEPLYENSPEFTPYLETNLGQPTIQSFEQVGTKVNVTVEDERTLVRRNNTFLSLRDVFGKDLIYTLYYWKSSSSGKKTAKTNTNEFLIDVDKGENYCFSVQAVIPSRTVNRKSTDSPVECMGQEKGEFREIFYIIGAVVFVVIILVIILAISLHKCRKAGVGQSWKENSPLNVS

Ixolaris/DEGR-Factor X complex (from UniProt P00742 41-488)
inhibition of Factor X (200 nM) activation after preincubation of Factor VIIa/TF with 100 pM Ixolaris/DEGR-Factor X [1]: > 85%

Ixolaris (recombinant, mature protein of 140 amino acids) (from UniProt Q964Q0 27-165)
Residual activity (%) of VIIa/TF (6.4 pM)/S2288 (1 mM) with 32 nM Ixolaris [1]: 0%
inhibition of Factor X (200 nM) activation after preincubation of Factor VIIa/TF (1 nM/0.2 pM) with 100 pM Ixolaris [1]: 65%
ED50 of the increase of Factor Xa (125 pM) esterolytic activity on S2222 (Factor Xa): 159 pM
increase of amidolytic activity of Factor Xa (640 pM) by Ixolaris (400 pM) (Factor Xa): 40%

full-length human TFPI (recombinant, 4900PC) (from UniProt P10646 29-304)
IC50 of inhibition of Factor VIIa/TF-induced Factor X activation, at 15 nM Factor X [1]: 0.61 nM
IC50 of inhibition of Factor VIIa/TF-induced Factor X activation, at 75 nM Factor X [1]: 0.62 nM
IC50 of inhibition of Factor VIIa/TF-induced Factor X activation, at 200 nM Factor X [1]: 0.625 nM

B1: γ-carboxyglutamic acid domainless Factor Xa (des-Gla-Factor Xa) (protein)
chain: KDGDQCETSPCQNQGKCKDGLGEYTCTCLEGFEGKNCELFTRKLCSLDNGDCDQFCHEEQNSVVCSCARGYTLADNGKACIPTGPYPCGKQTLERIVGGQECKDGECPWQALLINEENEGFCGGTILSEFYILTAAHCLYQAKRFKVRVGDRNTEQEEGGEAVHEVEVVIKHNRFTKETYDFDIAVLRLKTPITFRMNVAPACLPERDWAESTLMTQKTGIVSGFGRTHEKGRQSTRLKMLEVPYVDRNSCKLSSSFIITQNMFCAGYDTKQEDACQGDSGGPHVTRFKDTYFVTGIVSWGEGCARKGKYGIYTKVTAFLKWIDRSMKTRGLPKAKSHAPEVITSSPLK
activity of 0.4 nM des-Gla-Factor Xa plus 1.6 nM Ixolaris (control without Ixolaris: 1.4±0.12 units of Vmax) [2]: 0.4 nM des-Gla-Factor Xa plus 1.6 nM Ixolaris: 2.78±0.1 units of Vmax
fold increase of des-Gla-Factor Xa proteolytic activity in the presence of 1.6 nM Ixolaris [2]: proteolytic activity increased 1.98 fold in the presence of Ixolaris
